# Laboratory results from patent US20200188479A1, “APPARATUS AND METHODS FOR ADMINISTRATION OF A NAUSEOGENIC COMPOUND FROM A DRUG DELIVERY DEVICE” (INTARCIA THERAPEUTICS, INC., priority 2017, published 2020).
# Where two headings read alike, the source gives them in different places.
# Tests used:
# [1] = cited from earlier work; for half-life in human serum: following subcutaneous administration
# [2] = Predicted human plasma concentration profiles of GLP-1 agonists dosed by periodic injection, model fitted to published human pharmacokinetic data; conditions: for peak-trough / peak relative to mean: periodic injection dosed according to prescribers' information; for d[drug]/dt: periodic injection, percent of steady state mean concentration per hour
# Description: Two compartments (SC and Central) are contemplated. A constant fraction of SC drug enters the Central compartment per unit time (defined by Ka). A constant fraction of Central drug is eliminated per unit time (defined by K). Central drug concentration (equal to plasma drug concentration) is an amount of drug in the Central compartment (A) diluted into its volume of distribution (Vd).
# Plasma concentrations are each expressed as a fraction of […] plasma concentration i.e., steady state concentration (Css). The predictions are based upon published human pharmacokinetic data, with either raw plasma concentration data or data digitized from published figures for a single subcutaneous dose. The plasma concentrations were fitted to a model describing “absorption+single component decay” for each agent, as depicted in FIG. 13, based upon a rate constant for absorption from a subcutaneous depot into the plasma, and another rate constant for elimination from the plasma compartment. Data were fit using non-linear regression via an iterative least-squares method within Prism v7.0 (GraphPad Software Inc., San Diego, Calif.).
# The derived plasma concentration profile for a single subcutaneous bolus was extended from the time of dosing until plasma concentrations were negligible. This profile was serially added to itself, staggered by a period determined by the indicated dose interval, and in a magnitude determined by the recommended dose increases. The numeric sum is shown as the black line in each plot.
# (§1) Rate of change of drug concentration, particularly positive rate of change, d[drug]/dt, was derived as the first differential of the plasma concentration profile summed as described above. The d[drug]/dt was expressed with “d[drug]” units reduced to percent of steady state mean concentration of indicated doses, to enable comparisons between agents with differing potencies and pharmacokinetics. The “dt” units were hours. The X-axes in FIGS. 10 and 12 represent the d[drug]/dt thus obtained, in units of “% of steady-state mean (i.e., Css) per hour”.
# [3] = patients, cited from earlier work
# human GLP-1 receptors = biological target: T1, human GLP-1 receptors (Homo sapiens, UniProt P43220); assay: Albumin binding assessed by potency shift: cAMP activation of GLP-1 receptors expressed in CHO-K1 cells at different HSA concentrations; format: cell-based; conditions: potency decreased with increasing albumin concentration; final HSA 0-4%
# T1 construct: expressed in transfected cells; host or cells: CHO-K1 (transient transfection, Lipofectamine 2000)
# T1 sequence (P43220 24-463): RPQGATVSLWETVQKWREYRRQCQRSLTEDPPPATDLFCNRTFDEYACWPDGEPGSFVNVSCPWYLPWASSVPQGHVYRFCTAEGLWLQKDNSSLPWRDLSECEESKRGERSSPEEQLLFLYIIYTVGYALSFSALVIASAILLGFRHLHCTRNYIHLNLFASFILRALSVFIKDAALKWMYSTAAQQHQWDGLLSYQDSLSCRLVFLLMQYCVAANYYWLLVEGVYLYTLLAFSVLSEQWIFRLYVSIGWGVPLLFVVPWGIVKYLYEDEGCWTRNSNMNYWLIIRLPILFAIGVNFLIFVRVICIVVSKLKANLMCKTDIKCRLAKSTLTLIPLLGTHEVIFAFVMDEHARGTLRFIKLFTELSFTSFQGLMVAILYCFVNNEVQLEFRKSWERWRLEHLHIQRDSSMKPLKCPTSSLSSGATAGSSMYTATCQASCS
# Description: EC50 values were converted to pEC50 values using the formula: pEC50=−Log(EC50).
# [4] = Estimated d[drug]/dt if administered via single subdermal placement of an osmotic drug delivery device; parameters: species or system human
# Description: as §1
# [5] = periodic injection of aqueous solution
# [6] = periodic injection (weekly aqueous solution)
substance,measurement,setting,value
GLP-1,t1/2,"[1]; peptidase prone GLP-1, by contrast to exenatide",~3.4 min
albiglutide,peak-trough,[2],28 % of peak
same,half-life,[1]; in humans,140 to 190 h
des-Pro^36-exendin-4(1-39)-Lys6-NH2 [lixisenatide],nausea,"[3]; daily injection, in 24 weeks",26%
same,vomiting,"[3]; daily injection, in 24 weeks",11%
same,peak relative to mean,[2],2.4 × mean
same,peak-trough,[2],97 % of peak
same,Tmax,[2]; [5],~1.7 h
same,t1/2,[2]; [5],~3.0 h
same,d[drug]/dt,[2],204 % mean/hour
same,half-life in human serum,[1],approximately several hours
same,terminal half-life,"[1]; humans, subcutaneous administration",approximately 3 h
dulaglutide,peak-trough,[2],63 % of peak
semaglutide,nausea reported,[3]; weekly injection,22%
same,withdrawn,[3]; weekly injection,6%
same,Tmax,[2]; [6],~76.8 h
same,t1/2,[2]; [6],~199 h
same,peak relative to mean,[2],1.12 × mean
same,peak-trough,[2],26 % of peak
same,d[drug]/dt,[2],3.3 % mean/hour
same,albumin (HSA) concentration at mid-range of the potency change,human GLP-1 receptors,~0.6%
same,"d[drug]/dt, times lower than d[exenatide]/dt",[4],35 ×
same,half-life in human serum,[1],~165 h
